The results in this text go back to paper PMC4159615 (Developmental cell, 2014).

Holding throughout (assay): crystal structure
The target of series [1] is T1, Bch1 (S. cerevisiae (yeast), UniProt Q05029 1-724).
T1 sequence: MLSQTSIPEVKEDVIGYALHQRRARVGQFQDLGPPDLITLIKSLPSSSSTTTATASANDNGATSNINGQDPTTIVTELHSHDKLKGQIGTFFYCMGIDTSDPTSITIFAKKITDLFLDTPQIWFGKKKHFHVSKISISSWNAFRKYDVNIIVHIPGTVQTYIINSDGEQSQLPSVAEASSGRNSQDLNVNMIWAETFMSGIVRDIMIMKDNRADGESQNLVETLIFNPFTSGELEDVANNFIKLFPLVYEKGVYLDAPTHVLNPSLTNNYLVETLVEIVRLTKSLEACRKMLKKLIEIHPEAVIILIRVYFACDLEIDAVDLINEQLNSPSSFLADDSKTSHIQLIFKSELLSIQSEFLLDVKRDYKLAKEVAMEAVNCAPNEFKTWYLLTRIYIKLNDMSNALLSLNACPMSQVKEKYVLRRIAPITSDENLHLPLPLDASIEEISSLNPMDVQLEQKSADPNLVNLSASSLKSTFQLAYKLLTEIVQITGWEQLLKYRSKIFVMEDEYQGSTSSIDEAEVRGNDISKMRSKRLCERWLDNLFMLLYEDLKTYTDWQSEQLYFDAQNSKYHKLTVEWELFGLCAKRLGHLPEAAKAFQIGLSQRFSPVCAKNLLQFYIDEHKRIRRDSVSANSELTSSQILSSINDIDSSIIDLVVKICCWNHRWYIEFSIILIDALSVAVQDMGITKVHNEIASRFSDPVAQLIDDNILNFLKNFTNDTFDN

The target in series [2] is T2, Chs5(1-299)/Bch1 exomer complex (S. cerevisiae (yeast), UniProt Q12114 1-299; Q05029 1-724).
T2 sequence 1: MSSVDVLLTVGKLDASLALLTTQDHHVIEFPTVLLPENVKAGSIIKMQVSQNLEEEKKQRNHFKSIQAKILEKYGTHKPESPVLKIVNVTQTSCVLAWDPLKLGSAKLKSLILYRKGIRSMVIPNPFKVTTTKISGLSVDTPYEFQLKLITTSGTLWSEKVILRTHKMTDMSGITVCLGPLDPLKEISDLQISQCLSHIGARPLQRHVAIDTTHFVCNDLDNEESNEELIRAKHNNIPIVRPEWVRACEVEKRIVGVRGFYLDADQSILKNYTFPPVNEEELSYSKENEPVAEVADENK
T2 sequence 2: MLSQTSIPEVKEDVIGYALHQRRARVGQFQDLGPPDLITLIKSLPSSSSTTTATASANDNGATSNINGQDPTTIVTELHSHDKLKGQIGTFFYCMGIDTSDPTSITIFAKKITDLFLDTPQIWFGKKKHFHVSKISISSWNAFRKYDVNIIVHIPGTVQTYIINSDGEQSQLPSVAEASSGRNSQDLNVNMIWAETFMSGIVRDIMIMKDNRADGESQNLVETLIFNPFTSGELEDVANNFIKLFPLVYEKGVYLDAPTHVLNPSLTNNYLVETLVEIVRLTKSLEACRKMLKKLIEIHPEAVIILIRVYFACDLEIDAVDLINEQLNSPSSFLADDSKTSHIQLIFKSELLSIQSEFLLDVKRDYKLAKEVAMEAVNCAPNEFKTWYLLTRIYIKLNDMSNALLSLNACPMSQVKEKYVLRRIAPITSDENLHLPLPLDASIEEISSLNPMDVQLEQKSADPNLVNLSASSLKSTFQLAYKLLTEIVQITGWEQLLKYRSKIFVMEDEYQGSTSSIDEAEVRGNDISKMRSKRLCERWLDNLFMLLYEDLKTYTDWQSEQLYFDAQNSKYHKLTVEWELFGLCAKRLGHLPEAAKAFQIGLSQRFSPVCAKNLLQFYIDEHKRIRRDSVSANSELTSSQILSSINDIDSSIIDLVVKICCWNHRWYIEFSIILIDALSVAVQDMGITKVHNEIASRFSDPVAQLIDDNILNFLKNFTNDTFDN

Series [3] concerns the molecule itself.

B1: ΔN17-Arf1-Q71L bound to GMPPNP (domain or fragment, S. cerevisiae (yeast), UniProt P11076 18-181, looked up)
chain: MRILMVGLDGAGKTTVLYKLKLGEVITTIPTIGFNVETVQYKNISFTVWDVGGLDRIRSLWRHYYRNTEGVIFVVDSNDRSRIGEAREVMQRMLNEDELRNAAWLVFANKQDLPEAMSAAEITEKLGLHSIRNRPWFIQATCATSGEGLYEGLEWLSNSLKNST
The term stoichiometry N denotes a count of units in the complex or per binding partner. Turning to B1, the binding result in series [1] is listed as “binds”. Moreover, the “stoichiometry N” value in series [2] came to 2.

B2: Chs5 (residues 1-299) (domain or fragment, S. cerevisiae (yeast), UniProt Q12114 1-299, looked up)
chain: MSSVDVLLTVGKLDASLALLTTQDHHVIEFPTVLLPENVKAGSIIKMQVSQNLEEEKKQRNHFKSIQAKILEKYGTHKPESPVLKIVNVTQTSCVLAWDPLKLGSAKLKSLILYRKGIRSMVIPNPFKVTTTKISGLSVDTPYEFQLKLITTSGTLWSEKVILRTHKMTDMSGITVCLGPLDPLKEISDLQISQCLSHIGARPLQRHVAIDTTHFVCNDLDNEESNEELIRAKHNNIPIVRPEWVRACEVEKRIVGVRGFYLDADQSILKNYTFPPVNEEELSYSKENEPVAEVADENK
As to B2, the binding result in series [1] and in series [3] was “binds” each time.
